Measurements from patent US20120316071A1 (published 2012).
Changes are numbered by the printed parent chain. One block for each binder: values may come before it.

Assays:
[1] = target: T1, Recombinant Human DLL4 (R&D Systems Cat#1506-D4/CF) (human, UniProt Q9NR61 27-524); experiment: Multispot ECL (MSD) assay, antigen spotted on plate, Fab at 1.56 µM; blank spot 4357
T1 construct: Bought recombinant protein; also called delta-like protein 4; rHuman DLL4

[2] = target: T2, rHuman EGF R/Fc Chimera, CF (R&D Systems Cat#344-ER) (human, UniProt P00533 25-645); experiment: as above
T2 construct: Bought recombinant protein; also called epidermal growth factor receptor (EGF R); Fc part of the bought chimera not given

[3] = target: T3, rHuman Notch-1/Fc Chimera, CF (R&D Systems Cat#3647-TK) (human, UniProt P46531 19-526); experiment: as above
T3 construct: Bought recombinant protein; Fc part of the bought chimera not given

[4] = target: T4, rHuman CD44/Fc Chimera, CF (R&D Systems Cat#3660-CD) (human, UniProt P16070 21-220); experiment: as above
T4 construct: Bought recombinant protein; Fc part of the bought chimera not given

[5] = target: T5, Recombinant Human DLL4 (R&D Systems Cat#1506-D4/CF) (human, UniProt Q9NR61 27-524); experiment: MSD multispot ECL, antigen spotted, Fab 0.1 nM; blank spot 201
T5 construct: Bought recombinant protein; also called rHuman DLL4; delta-like protein 4

[6] = target: T6, rHuman EGF R/Fc Chimera, CF (R&D Systems Cat#344-ER) (human, UniProt P00533 25-645); experiment: as above
T6 construct: Bought reagent; also called epidermal growth factor receptor

[7] = target: T7, rHuman IGF-1 sR, (IGF-1 sR), CF (R&D Systems Cat#391-GR) (human, UniProt P08069 31-932); experiment: as above
T7 construct: Bought soluble receptor; also called insulin-like growth factor-1 soluble receptor

[8] = target: T8, Recombinant Human DLL4 (R&D Systems Cat#1506-D4/CF) (human, UniProt Q9NR61 27-524); experiment: Multispot ECL (MSD), antigen spotted on plate, Fab 250 nM; blank spot 590
T8 construct: Bought recombinant protein; also called rHuman DLL4; delta-like protein 4

[9] = target: T9, rHuman Notch-1/Fc Chimera, CF (R&D Systems Cat#3647-TK) (human, UniProt P46531 19-526); experiment: as above
T9 construct: Bought recombinant protein; Fc part of the bought chimera not given

[10] = target: T10, rHuman IGF-1 sR, CF (R&D Systems Cat#391-GR) (human, UniProt P08069 31-932); experiment: as above
T10 construct: Bought recombinant soluble receptor; also called insulin-like growth factor-1 soluble receptor

[11] = target: T11, rHuman Erythropoietin R/Fc Chimera, CF (R&D Systems Cat#963-ER) (human, UniProt P19235 25-250); experiment: as above
T11 construct: Bought recombinant protein; also called EPO R/Fc; Epo R; Fc part of the bought chimera not given
T11 sequence (looked up): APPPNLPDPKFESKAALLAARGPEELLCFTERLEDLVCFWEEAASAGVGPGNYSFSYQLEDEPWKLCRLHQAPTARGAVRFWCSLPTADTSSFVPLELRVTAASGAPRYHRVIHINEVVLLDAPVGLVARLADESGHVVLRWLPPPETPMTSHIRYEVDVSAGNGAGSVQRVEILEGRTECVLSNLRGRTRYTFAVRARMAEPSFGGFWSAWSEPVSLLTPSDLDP

[12] = target: T12, rHuman Erythropoietin R/Fc Chimera, CF (R&D Systems Cat#963-ER) (human, UniProt P19235 25-250); experiment: MSD Multispot ECL, antigen spotted on plate, Fab 32.5 nM; blank spot 473
T12 construct: Bought reagent; also called EPO R/Fc; EPO R; Fc part of the bought chimera not given
T12 sequence (looked up): T11 sequence (looked up)

[13] = target: T13, Recombinant Human DLL4 (R&D Systems Cat#1506-D4/CF) (human, UniProt Q9NR61 27-529); experiment: as above
T13 construct: Bought recombinant protein; also called rHuman DLL4; delta-like protein 4

[14] = target: T14, rHuman ErbB2/Fc Chimera, CF (R&D Systems Cat#1129-ER) (human, UniProt P04626 23-652); experiment: as above
T14 construct: Bought reagent; also called human epidermal growth factor 2 receptor; Fc part of the bought chimera not given

[15] = target: T15, rHuman EGF R/Fc Chimera, CF (R&D Systems Cat#344-ER) (human, UniProt P00533 25-645); experiment: as above
T15 construct: Bought reagent; also called epidermal growth factor receptor; Fc part of the bought chimera not given

[16] = target: T16, rHuman HGF R/c-MET/Fc Chimera, CF (R&D Systems Cat#358-MT/CF) (human, UniProt P08581 25-932); experiment: as above
T16 construct: Bought reagent; also called HGF R/Fc; hepatocyte growth factor receptor; Fc part of the bought chimera not given

[17] = target: T17, rHuman Notch-1/Fc Chimera, CF (R&D Systems Cat#3647-TK) (human, UniProt P46531 19-526); experiment: as above
T17 construct: Bought reagent; Fc part of the bought chimera not given

[18] = target: T18, rHuman CD44/Fc Chimera, CF (R&D Systems Cat#3660-CD) (human, UniProt P16070 21-220); experiment: as above
T18 construct: Bought reagent; Fc part of the bought chimera not given

[19] = target: T19, rHuman IGF-1 sR, (IGF-1 sR), CF (R&D Systems Cat#391-GR) (human, UniProt P08069 31-932); experiment: as above
T19 construct: Bought soluble receptor; also called insulin-like growth factor-1 soluble receptor

T16 sequence (P08581 25-932, change not shown): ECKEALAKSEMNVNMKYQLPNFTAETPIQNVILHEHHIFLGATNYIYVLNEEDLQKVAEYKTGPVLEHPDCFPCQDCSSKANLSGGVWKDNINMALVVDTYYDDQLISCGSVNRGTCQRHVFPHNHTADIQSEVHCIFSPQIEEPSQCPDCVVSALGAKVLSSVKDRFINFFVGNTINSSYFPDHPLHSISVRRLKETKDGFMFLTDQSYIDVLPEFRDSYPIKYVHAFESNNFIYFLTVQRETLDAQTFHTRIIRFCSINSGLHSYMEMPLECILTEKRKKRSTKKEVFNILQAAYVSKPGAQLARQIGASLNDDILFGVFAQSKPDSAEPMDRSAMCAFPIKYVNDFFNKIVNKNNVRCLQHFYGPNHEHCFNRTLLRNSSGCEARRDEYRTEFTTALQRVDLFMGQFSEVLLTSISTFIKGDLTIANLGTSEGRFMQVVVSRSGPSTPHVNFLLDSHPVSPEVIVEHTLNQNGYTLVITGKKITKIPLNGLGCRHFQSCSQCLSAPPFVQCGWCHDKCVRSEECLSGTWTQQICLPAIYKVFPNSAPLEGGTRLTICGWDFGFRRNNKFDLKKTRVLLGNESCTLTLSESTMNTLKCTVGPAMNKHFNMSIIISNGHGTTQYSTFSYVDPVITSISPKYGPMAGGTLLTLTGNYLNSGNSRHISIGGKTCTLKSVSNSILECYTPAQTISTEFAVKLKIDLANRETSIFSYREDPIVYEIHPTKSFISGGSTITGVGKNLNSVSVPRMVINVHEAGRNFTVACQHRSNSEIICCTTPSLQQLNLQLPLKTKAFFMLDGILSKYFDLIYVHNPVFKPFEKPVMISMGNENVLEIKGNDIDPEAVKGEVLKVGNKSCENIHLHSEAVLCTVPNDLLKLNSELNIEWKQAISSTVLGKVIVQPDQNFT

ECL signal [1]: 10900 | ECL signal [2]: 7830 | ECL signal [3]: 9450 | ECL signal [4]: 7600
B1: Fab VH1-46_IGHD7-27*01_IGHJ2*01 & L6_IGKJ1*01 (Fab, V domains shown)
VH: QVQLVQSGAEVKKPGASVKVSCKASGYTFTSYYMHWVRQAPGQGLEWMGIINPSGGSTSYAQKFQGRVTMTRDTSTSTVYMELSSLRSEDTAVYYCARANWGYWYFDLWGRGTLVTVSS
VL: not shown
notes: Germline Fab made in E. coli; VH was cloned in Plasmid A (CH1 constant region, His6 and Flag tags) and the kappa VL in Plasmid C (kappa CL); Only the variable domains are tied to this Fab by name

ECL signal [5]: 317 ECL signal | ECL signal [6]: 311 ECL signal | ECL signal [7]: 241 ECL signal
B2: Fab VH1-46_IGHD6-6*01_IGHJ1*01 & L6_IGKJ1*01 (Fab, V domains shown)
VH: QVQLVQSGAEVKKPGASVKVSCKASGYTFTSYYMHWVRQAPGQGLEWMGIINPSGGSTSYAQKFQGRVTMTRDTSTSTVYMELSSLRSEDTAVYYCAREEYSSSSAEYFQHWGQGTLVTVSS
VL: not shown
notes: Only variable domains are tied to the molecule; Tested as a Fab made in E. coli: heavy chain from Plasmid A (CH1 constant region, His6 and Flag tags), kappa light chain from Plasmid C (kappa CL); also called parent Hit Fab against DLL4; VH1-46_IGHD6-6*01_IGHJ1*01 & L6_IGKJ1*01 (parental)

ECL signal [8]: 1560 | ECL signal [9]: 1240 | ECL signal [10]: 993 | ECL signal [11]: 8540
B3: Fab VH1-46_IGHD6-13*01_IGHJ4*01 & B3_IGKJ1*01 (Fab, V domains shown)
VH: B2 VH with E100G, S105W, A106Y, E107D, Q110D, H111Y
VL: not shown
notes: Germline Fab made in E. coli; VH was cloned into Plasmid A (CH1, His6 and Flag tags) and the kappa VL into Plasmid C (kappa CL)

ECL signal [12]: 673 | ECL signal [13]: 2990 | ECL signal [14]: 556 | ECL signal [15]: 645 | ECL signal [16]: 525 | ECL signal [17]: 706 | ECL signal [18]: 573 | ECL signal [19]: 561
B4: Fab VH1-8_IGHD2-2*01_IGHJ6*01 & L12_IGKJ1*01 (Fab, V domains shown)
VH: QVQLVQSGAEVKKPGASVKVSCKASGYTFTSYDINWVRQATGQGLEWMGWMNPNSGNTGYAQKFQGRVTMTRNTSISTAYMELSSLRSEDTAVYYCARGGYCSSTSCYADYYYYYGMDVWGQGTTVTVSS
VL: not shown
